Experimental data from PMC8349896 (Molecular cell, 2021).

Tests used:
SEC = biological target: the molecule itself; assay: SEC
[1] = biological target: T1, bacteriophage T7 ejection protein gp15, full length (bacteriophage T7, UniProt P03725 1-747); assay: native gel or EMSA
T1 sequence (looked up): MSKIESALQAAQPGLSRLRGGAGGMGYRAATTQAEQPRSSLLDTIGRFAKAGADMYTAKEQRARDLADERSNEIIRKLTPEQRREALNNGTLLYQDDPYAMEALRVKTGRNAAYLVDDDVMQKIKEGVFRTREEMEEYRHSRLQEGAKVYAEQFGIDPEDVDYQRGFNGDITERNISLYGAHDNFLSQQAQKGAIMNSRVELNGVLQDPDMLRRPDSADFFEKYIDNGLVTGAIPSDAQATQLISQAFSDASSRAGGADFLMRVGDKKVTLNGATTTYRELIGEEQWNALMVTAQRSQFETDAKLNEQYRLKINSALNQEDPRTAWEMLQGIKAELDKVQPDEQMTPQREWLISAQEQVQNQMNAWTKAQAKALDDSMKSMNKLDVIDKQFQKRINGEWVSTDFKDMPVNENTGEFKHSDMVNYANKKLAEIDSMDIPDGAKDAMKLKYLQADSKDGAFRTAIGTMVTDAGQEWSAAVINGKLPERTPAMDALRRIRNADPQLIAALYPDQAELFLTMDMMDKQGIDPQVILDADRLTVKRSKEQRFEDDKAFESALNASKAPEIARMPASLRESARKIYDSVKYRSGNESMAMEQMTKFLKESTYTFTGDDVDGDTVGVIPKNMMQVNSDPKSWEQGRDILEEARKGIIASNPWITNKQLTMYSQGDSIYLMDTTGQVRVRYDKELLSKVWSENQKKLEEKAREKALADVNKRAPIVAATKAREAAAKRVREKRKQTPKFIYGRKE

gp16-C = biological target: T2, gp16-C (bacteriophage T7, UniProt P03726 275-1318); assay: EMSA
T2 sequence: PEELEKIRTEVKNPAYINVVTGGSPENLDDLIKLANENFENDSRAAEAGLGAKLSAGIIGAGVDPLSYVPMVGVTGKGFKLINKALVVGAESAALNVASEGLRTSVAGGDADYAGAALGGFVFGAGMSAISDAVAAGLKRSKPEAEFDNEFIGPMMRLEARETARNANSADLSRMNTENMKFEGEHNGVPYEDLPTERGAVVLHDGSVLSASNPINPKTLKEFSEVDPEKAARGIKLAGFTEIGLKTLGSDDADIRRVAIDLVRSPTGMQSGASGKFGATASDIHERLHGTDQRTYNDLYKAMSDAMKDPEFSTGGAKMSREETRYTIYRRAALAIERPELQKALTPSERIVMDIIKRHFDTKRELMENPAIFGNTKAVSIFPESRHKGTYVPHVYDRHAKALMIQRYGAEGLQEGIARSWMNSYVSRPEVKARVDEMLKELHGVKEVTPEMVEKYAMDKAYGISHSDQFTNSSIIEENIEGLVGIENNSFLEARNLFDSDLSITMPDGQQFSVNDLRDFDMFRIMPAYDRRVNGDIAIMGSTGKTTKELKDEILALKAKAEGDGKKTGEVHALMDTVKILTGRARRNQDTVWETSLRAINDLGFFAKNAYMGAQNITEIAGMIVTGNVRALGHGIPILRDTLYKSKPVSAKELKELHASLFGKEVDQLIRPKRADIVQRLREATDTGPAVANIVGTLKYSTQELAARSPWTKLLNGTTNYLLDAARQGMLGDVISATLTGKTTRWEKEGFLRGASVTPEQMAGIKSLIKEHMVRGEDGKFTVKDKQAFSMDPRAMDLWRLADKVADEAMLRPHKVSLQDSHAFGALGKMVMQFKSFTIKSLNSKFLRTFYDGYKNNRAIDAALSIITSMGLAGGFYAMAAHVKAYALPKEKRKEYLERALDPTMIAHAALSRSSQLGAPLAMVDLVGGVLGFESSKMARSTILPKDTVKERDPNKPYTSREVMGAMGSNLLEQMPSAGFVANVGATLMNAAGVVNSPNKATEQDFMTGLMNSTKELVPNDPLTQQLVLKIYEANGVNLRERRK

gp16-N = biological target: T3, gp16-N (bacteriophage T7, UniProt P03726 1-228); assay: EMSA
T3 sequence: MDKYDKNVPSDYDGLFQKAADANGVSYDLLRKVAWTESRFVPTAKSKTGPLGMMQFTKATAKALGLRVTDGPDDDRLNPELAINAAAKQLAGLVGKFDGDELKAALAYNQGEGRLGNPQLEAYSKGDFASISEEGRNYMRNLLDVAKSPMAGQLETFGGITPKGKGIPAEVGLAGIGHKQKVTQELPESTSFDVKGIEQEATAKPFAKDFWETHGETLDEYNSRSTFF

B1: bacteriophage T7 ejection protein gp14 (natural protein, UniProt P03724 1-196, looked up)
chain: MCWAAAIPIAISGAQAISGQNAQAKMIAAQTAAGRRQAMEIMRQTNIQNADLSLQARSKLEEASAELTSQNMQKVQAIGSIRAAIGESMLEGSSMDRIKRVTEGQFIREANMVTENYRRDYQAIFAQQLGGTQSAASQIDEIYKSEQKQKSKLQMVLDPLAIMGSSAASAYASGAFDSKSTTKAPIVAAKGTKTGR
SEC
  binding result: binds

B2: gp16-N (bacteriophage T7 gp16 residues 1-228) (domain or fragment, UniProt P03726 1-228, looked up)
chain: T3 sequence
[1]
  binding result: binds

B3: Cy3-dsDNA 24-mer (dsDNA)
DNA 1: GCACTGCAGTAACTTGTCAGTCAT
DNA 2: ATGACTGACAAGTTACTGCAGTGC
gp16-C
  binding result: binds
gp16-N
  binding result: no binding
